Test results reported in patent US10078082B2, “Detection of free and protein-bound non-human gal-alpha(1-3)-gal epitope” (National University of Ireland, Galway, priority 2012, dated 2018).
Several values for one entry are separate records, joined by “and”; a condition that tells them apart may be missing. Equal values may be shown once.

Key:
scFv A11 = assay: Competitive ELISA specificity study: inhibition of scFv binding to Gal-α-(1→3)-Gal-BSA by free sugars; parameters: species or system chicken; conditions: highest concentration 1 mg/mL
Procedure: (§1) Each scFv was evaluated in a competitive ELISA format using free Gal-α-(1,3)-Gal as standard. Microtitre plate wells were coated and blocked as previously described. Standard solutions were prepared in PBS (pH 7.2), ranging in concentration from 2 μg/ml (5.84 μM) to 20 mg/ml (58.4 mM). For the assay, 50 μl of each standard and buffer blank were added to designated wells in triplicate, followed by 50 μl of a sub-saturating concentration (1 μg/ml) of the appropriate scFv, giving a final standard concentration in the assay of 1 μg/ml (2.92 μM) to 10 mg/ml (29.2 mM). The plate was incubated for 1 hour at 37° C. with shaking After washing, bound scFv was detected as previously described. The ratios of the OD for each standard versus the OD given by the blank (B/Bo) were plotted versus standard concentration and standard curve plotted using SigmaPlot (v11, Systat Software Inc). The detection limits were determined as the concentration corresponding to the mean response for zero standard minus three times the standard deviation (SD). Inhibition of scFv by a panel of free sugars. scFv binding to Gal-α-(1→3)-Gal-BSA was determined against a panel of 21 free form sugars; D-Cellibiose, Melibiose, D-Raffinose, Lactulose, Palatinose, β-Gentibiose, D+ Trehalose, D+ Turanose, L− Fructose, D+ Glucose, Sucrose, Galacto-N-biose, 4β-Galactobiose, gal-α(1-3)-gal-β-(1-4)-gal, gal-α(1-3)-gal-β-(1-4)-glc, gal-α(1-3)-gal-β-(1-4)-gal-all-3)-gal, Laminarbiose, β1-4-D-Xylobiose, N-Acetyl-D-glucoseamine (GlcNAc), Galactose, N-Acetyl-D-lactosamine (LacNAc), (sourced from Sigma Aldrich and Dextra, UK). Inhibitions were performed by serial dilutions of free sugars and a sub-saturating concentration scFv added to each dilution and pre-incubated for 60 minutes at 37° C., prior to performing ELISA against Gal-α-(1→3)-Gal-BSA as used throughout. The percent binding of the scFv was plotted against the […], and the 50% effective dose determined (ED50; dose of free sugar causing 50% displacement of the scFv).

scFv A4 = assay: as above; parameters: species or system chicken; conditions: highest concentration 1 mg/mL
Procedure: as §1

scFv G12 = assay: as above; parameters: species or system chicken; conditions: highest concentration 1 mg/mL
Procedure: as §1

[1] = scFv-based competitive ELISA, free Gal-α-(1→3)-Gal as standard, immobilized Gal-α-(1→3)-Gal-BSA; type: binding; conditions: free Gal-α-(1→3)-Gal disaccharide standard; plates coated with Gal-α-(1→3)-Gal-BSA 10 μg/ml; FIG. 6; listed as G12
Procedure: as §1, with “FIG. 6: Standard curves for competitive ELISA given by scFv clones G12, A4, and A11. Plates were coated with immobilized Gal-α-(1→3)-Gal-BSA [10 μg/ml] and incubated with 2.5 μg/ml of the scFvs in the presence of an increasing concentrations of free Gal-α-(1→3)-Gal. The error bars indicate the standard error of the mean of triplicate determinations. Each” for “Each”

[2] = NGC microarray specificity analysis (over 50 structures); type: binding; conditions: FIG. 8
Description: FIG. 8: Comparison of the specificity of selected scFv fragments A4, A11 and G12 against a panel of related NGCs compared directly to the specificity binding pattern of the lectin GS-1-B4, considered as highly specific for α-Gal residues.
The spectacular specificity of the scFvs has also been determined by analysis on an NGC microarray containing over 50 different structures. […] ScFv-based competitive ELISA. Competitive ELISAs were established with each of the three scFvs examined using as standard the free Gal-α-(1→3)-Gal disaccharide within the concentration range 0.001 to 10000 μg/ml (2.93 nM to 29.3 mM). […] A panel of 21 related sugars were tested in the scFv-based competitive assays (Table 1). […] All three scFvs were more reactive to the disaccharide than Gal-α-(1,3)-Gal-containing trisaccharides, as shown by lower inhibitory activity of the trisaccharides and supporting the results obtained in the direct ELISA.

[3] = Near UV circular dichroism interaction study with disaccharides; type: binding; conditions: pH 7.2, 20° C.
Procedure: The scFvs A4, A11 and G12 were used to check their interaction with Galα(1,3)Galβ1-OMe (Carbosynth) and with melibiose, the latter as negative control.
(§2) Two types of experiments were performed: firstly, the near UV circular dichroism (CD) spectra of the scFvs in the absence and presence of 4 mM of both disaccharides have been compared. Secondly, the effect of the disaccharides on the thermal stability of the scFvs has been studied.
(§3) Samples were diluted in NaPi (10 mM)-NaCl (150 mM) pH 7.2 and either concentrated by ultrafiltration twice (for small amounts) or exhaustively dialyzed. CD spectra were acquired at 20° C. in a J-810 spectropolarimeter, equipped with a Peltier temperature control system, using a bandwidth of 1 nm, a scan rate of 20 nm/min and a response time of 4 s, collecting data every 0.2 nm and 3 accumulations for each spectrum. Near-UV spectra were registered at around 1.0 mg ml^−1 protein concentration in 1-cm path-length cells while far-UV spectra were recorded in 0.1 cm path-length quartz cells at a protein concentration of around 0.2 mg ml^−1. For all CD spectra, the corresponding buffer baseline was subtracted. Thermal stability was evaluated by measuring ellipticity changes at 208 nm while increasing temperature from 20 to 90° C., with a constant rate of 40° C./h. Ellipticity changes were collected every 0.2° C. and spectra were collected every 10° C. The thermal denaturation profiles were fitted to a sigmoidal function using the equation:—

[4] = Thermal denaturation monitored by far UV CD ellipticity; type: physicochemical
Procedure: as §2
as §3, with “Thermal stability was evaluated by measuring ellipticity changes at 208 nm while increasing temperature from 20 to 90° C., with a constant rate of 40° C./h.” left out
where Θ(T) represents the ellipticity at temperature T (Kelvin), ΘN the ellipticity of the native protein, n the number of transitions, ΔΘ1 the ellipticity increment of transition i, R the gas constant and Tmi and HDi the temperature at the transition midpoint (melting temperature) and the parameter which describes the cooperativity (slope) of the corresponding transition, respectively.
In the second set of experiments, the thermal stability of the scFvs in the absence and presence of the disaccharides was investigated. With this type of experiment, we were able to get: 1) the far UV CD spectra at increasing temperatures, which gave information on changes in the secondary structure of the proteins upon heating and 2) the profile of the change in ellipticity at a certain wavelength, also with increasing temperatures, that allowed the calculation of the temperature of transition (Tm). Direct comparison of the Tm in the absence and presence of sugar provided information about the effect of the sugar on the scFvs, a thermal stabilisation (i.e. an increase in the Tm in the presence of the sugar) being indicative of interaction.

[5] = +4 mM Galα(1,3)Galβ1-OMe, λ 208
[6] = +4 mM Galα(1,3)Galβ1-OMe, λ 218
[7] = in the presence of 4 mM Galα(1,3)Galβ1-OMe, 208 nm

## OCC1OC(OC2C(O)C(CO)OC(OC3C(CO)OC(O)C(O)C3O)C2O)C(O)C(O)C1O (stereo not drawn) [gal-α-(1,3)-gal-β-(1,4)-gal]
scFv A11
  % Maximum inhibition at Max Conc A11: 76.83%
scFv A4
  % Maximum inhibition at Max Conc A4: 68.18%
scFv G12
  % Maximum inhibition at Max Conc G12: 64.43%

## OC[C@H]1O[C@H](O[C@H]2[C@@H](O)[C@@H](CO)O[C@@H](O[C@@H]3[C@H](O)[C@@H](O)[C@@H](O[C@H]4[C@@H](O)[C@@H](CO)OC(O)[C@@H]4O)O[C@@H]3CO)[C@@H]2O)[C@H](O)[C@@H](O)[C@H]1O (stereo partly drawn) [gal-α(1,3)-gal-β-(1,4)-gal-α-(1,3)-gal]
scFv A11
  % Maximum inhibition at Max Conc A11: 78.41%
scFv A4
  % Maximum inhibition at Max Conc A4: 73.48%
scFv G12
  % Maximum inhibition at Max Conc G12: 73.54%

## gal-α(1,3)-gal-BSA [gal-α(1,3)-gal-BSA (NGC)]
scFv A11
  % Maximum inhibition at Max Conc A11: 51.06%
scFv A4
  % Maximum inhibition at Max Conc A4: 36.4%
scFv G12
  % Maximum inhibition at Max Conc G12: 33.93%

## OC[C@H]1O[C@H](O[C@H]2[C@@H](O)[C@@H](CO)O[C@@H](O[C@H]3[C@H](O)[C@@H](O)C(O)O[C@@H]3CO)[C@@H]2O)[C@H](O)[C@@H](O)[C@H]1O (stereo partly drawn) [gal-α(1,3)-gal-β-(1,4)-glc]
scFv A11
  % Maximum inhibition at Max Conc A11: 73.88%
scFv A4
  % Maximum inhibition at Max Conc A4: 66.20%
scFv G12
  % Maximum inhibition at Max Conc G12: 83.03%

B1: scFv G12: chicken anti-Gal-α-(1→3)-Gal single chain antibody fragment, Seq Id No. 3; clone F1 has the same sequence (protein)
scFv: QAALTQPSSVSANPGETVKITCSGGSYHYGWYQQKSPGSAPVTVIYSNNQRPSGIPSRFSGSTSDSTGTLTITGVQADDEAVYFCGSYDSSNTYAGIFGAGTTLTVLGQSSRSSSGGGSSGGGGSAVTLDESGGGFQTPGGALSLVCKASGFTFSSYSMQWVRQAPGKGLEFVAGIGNSDRYTYFGPAVKGRATISRDNGQSTLRLQLNNLRAEDTATYFCARSGDSGNGCTHPWCSADNINAWGHGTEVIVSSTSGQAGQ
modifications: Synthetic protein sequence for scFv-G12 antibody fragment for detecting non-human Gal-alpha(1-3)-Gal
[1]
  ED50: 158 μg/ml and 0.46 mM
[2]
  Specificity for the Gal-α-(1→3)-Gal epitope compared with GS-1-B4: much higher specificity
[3]; 4 mM Galα(1,3)Galβ1-OMe
  Change of near UV CD spectrum: a clear change was detected
[3]; 4 mM melibiose (negative control)
  Change of near UV CD spectrum: did not cause any significant changes
[4]; [5]
  HD: 71 ± 5 kcal/mol
  Tm: 73.5 ± 0.3 °C
[4]; [6]
  HD: 137 ± 24 kcal/mol
  Tm: 74.3 ± 0.4 °C
[4]; +4 mM melibiose, λ 218
  HD: 116 ± 16 kcal/mol
  Tm: 66.5 ± 0.3 °C
[4]; Pure scFv, λ 208
  HD: 64 ± 4 kcal/mol
  Tm: 64.7 ± 0.2 °C
[4]; Pure scFv, λ 218
  HD: 116 ± 21 kcal/mol
  Tm: 66.4 ± 0.4 °C
[4]; [7]
  Change in cooperativity (HD): +6.8 Kcal/mol
  Stabilisation (increase in Tm): 8.8 °C
